Test results taken from the domain aggregation screens of Martell et al. (2025).

assay: soluble fraction after stress (log2 fold change); higher = more stays soluble; pooled small domains, quantitative proteomics; conditions: stress: 75 degC
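Further: 20 min heating vs room temperature control held 20 min.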

| Sequence | soluble fraction (log2) |
| --- | --- |
| HMDIFFEKIFNILIGYNQNQENLISEKSILNFHLSHKSNSNFEYIPDEKTPKYIWKYLSNYNLLE | -0.439 |
| HMDIFLPDVKGYDLIPSFRRHLPDIDVIAMTGYNTRALESAVRQQDVLFYMIKPFEASQLKEILEHLVK | -0.16 |
| HMDIKEIIKNRRIELGLTLKEVATAVGVSEGTVSRWESGNITNMKRNKIAALAKTLQIPPTTI | -0.618 |
| HMDIKKHISATLKREMEKRGLNFMEFSTELGIPRTTLQGYLKGTSSPQADSLEELADKLGISPAELVSG | -0.0134 |
| HMDIMLLLYKNIKKRRLEIGMSQEELAQKTGYTSRSSIAKIEKGEVDLQLSKIKLFANALRVSQSELMG | -3.49 |
| HMDIMTVGERVKKLAEKQGISLRELAKKAELSYNTVYSITRRGSERVAPDTISRLANALGVNVNELT | -0.263 |
| HMDINEIILKVASEKKTFKTSDVLEALDNNYTKQHVSALISAMVKKGILVKAGSTAKSTYALPENASLL | -1.26 |
| HMDINIETLNYYVGKAKIPLSELRISVKNIDLFLSGEKQPTFNQLSSIAKKLNIPTGLLLLDESIEV | -3 |
| HMDIPGITAVKPQAAFYMFPKIDVKKFNIVNDEKFALDLLQDKKILIVQGSGFNWKQPDHFRVV | 0.177 |
| HMDIRVAHVDDDMSFGEAFAQARSQVGPGGVFEWHGKLYGTYTAEEWASMSPAERSQYQQAVFN | -0.133 |
| HMDIVLPFSFAKRHGVVLSERQGETELLYLKGLPVRVLAEARRVLRQEFTVRQVEQAVFDKALSESYQN | -0.957 |
| HMDIYLDDINRKILHLLSQGVKTKSLRDYIDLSMSAIEKRKKHLKDLFLIEDGKDETLLSEARKKGF | -1.19 |
| HMDKAGWLPARVRLADYPALKQLAWQVQGVDELTPREALGIYERNWRHLDEAALLPRERNLIDALRLAFG | -0.72 |
| HMDKEQVTFIFRDIDIALRSLDYPIKDIKNTLNIIKSEFSNSKSTELNEQKINFENILKEAISILENND | -0.855 |
| HMDKFKDVGARIREARKVQKLSQADLAERLQISTSHMSDIENGKKNIGLDIFMRLTEALQVSADWLL | -0.437 |
| HMDKFTYVVKKEDEQYQIKDILRHNFTFSSRLRKKLKQNNSIFLNGAETVGWATPKEGDIISVRLP | -0.883 |
| HMDKKEFGKRLKNLRIRNKMSQQAMADSLGYTSRSTINKIEEGINEMSYDKIVRLMELYGLSRPDLGLEPI | -0.439 |
| HMDKKTMFNEALAKLVSYATAHDNLITMEDVKSFFNGLIDDDSQYKLIYDYLSINKIEIKGFT | -0.465 |
| HMDKLEKRILDYLLQKSAIDGSTILKISHREMAMDLGTAREVVTRILKKLETGGFVRQGENYLEILK | -0.518 |

| Sequence | soluble fraction (log2) |
| --- | --- |
| HMDKPIFTLRENEVLYWASMGKTYAEIATIVGISVRTVKFHMGNVVSKLGVSNARQAIRLGVELDLITPMQ | -2.03 |
| HMDKSFYETFEKIGHGDFDKGLNHVWQHANDGNGTATLLLSKLFLEFGDLDNFEKYLNISAEQSNPVAMKI | -0.357 |
| HMDKSNEVLMNHYRKQEINQAKKRLEEEKMSIIQVLQLTNKEVITTDELLEALYISKEQLLDEIINTTQ | -0.354 |
| HMDKSPVLQLNRDVPAGQQISADDFRTVEIGADGAFRSVPSSDLNAMVGSYAKVRLIAGTLLAREALQSG | 0.0261 |
| HMDKSRPVLRVGDSGDWVSKLQTALLEFGYRVAVDGVFGEHTKSAVVHFQNGRRLIADGVVGNLTWDALL | -2.4 |
| HMDKWFPVSSDHKVQVGDYLRTADGLVKVEATHNEYGTFYGKIITAIHDDVVKGETYEYRIDDVQVLA | -0.00685 |
| HMDLAPLQTVDIAINYAKAAELAAILKSSEGGILSDRGGVTVDERTNTLLIRDTLESIDEARKTI | 0.224 |
| HMDLATQHAAKVNAAILAARRFEREGSWRQVAAKYSEALQLMPGNEQASRGYQQAMAMLDERD | -0.0717 |
| HMDLDSGVAVLRTLMSQHNLQTDDFQNEIGGKSMVSMILNGTRKLSKNHIQALSGRFNLSPALFF | -0.819 |
| HMDLEELSNKMNNVFESLSSDLRDIIIMSDIEGLSYEEISHKINIPIGTVRSRLHRARDLMVRVIKEN | -0.517 |
| HMDLGEQIIEKLRAAGGFLAITDKSPAEEIYELFATSKKNYKKAVGGLYKKGLLVIEDDGIRLTPAGR | -0.503 |
| HMDLHERISSVLLGTGKSNDELAQILGVNKNTISAYKNKHGDLKGIVLEGIVKHFDINPVWLLTGSGTR | -0.577 |
| HMDLKSLEFAIVENVQRHDLNPLEEAQGYKRLIDEFSYDQDKVSKFIGKSRSYITNSLRLLNLPLEVLEF | 0.125 |
| HMDLKTNSQLINELEKKIKRPFDREIKNYLNKNLSTDRMISNNEIDKIILFYSGNNEIPNIEKISLILNDN | -0.0499 |
| HMDLPATVPNLEGLTEVTARNKLTVAGLSLGEVKEVESDKEKGTVVGQSIAYGKRVTKGTKVDIEISSGK | 0.194 |
| HMDLPDTLSMPNALKVLEDNGFPTSKAKLYKMTSQEQIPFMKYGNKLVFSRKALIEWAHKQLV | -1.94 |
| HMDLPREKRIEIGLTYIYGIGLKTSQKILAATGIDPNTRVKDLDETTVSKLREYIDHNYRVEGELRS | -1.32 |
| HMDLSLQTFNELKTELTNNKITIDQFSEKINEFDITSDIFEISRELFLDDTLSLEDYLVVIENVLIN | -0.327 |
| HMDLSQTVQAKALARVNVREGAGTHFKSLGKLKKGELLPVFRVGNSWASIWWKGRVAYVHTDYLRFESA | -1.98 |
